Values joined by “and” are separate entries in the source; they are usually repeats but may differ in a detail not shown here. Equal entries are not always repeated.
Target: the molecule itself
Experiment: SDS-PAGE with immunoblot (denaturing); denatured samples (SDS loading buffer, 5 min 95 °C) of the extracts made for BN-PAGE

B1: HIR2-HA (natural protein, Arabidopsis thaliana, UniProt Q9SRH6 1-285, looked up)
chain: MGNLFCCVLVKQSDVAVKERFGKFQKVLNPGLQFVPWVIGDYVAGTLTLRLQQLDVQCETKTKDNVFVTVVASIQYRVLADKASDAFYRLSNPTTQIKAYVFDVIRACVPKLNLDDVFEQKNEIAKSVEEELDKAMTAYGYEILQTLIIDIEPDQQVKRAMNEINAAARMRVAASEKAEAEKIIQIKRAEGEAESKYLSGLGIARQRQAIVDGLRDSVLGFAGNVPGTSAKDVLDMVMMTQYFDTMRDIGATSKSSAVFIPHGPGAVSDVAAQIRNGLLQANNAS
notes: HIR2, Arabidopsis thaliana; also called HA-tagged HIR2; source: Nicotiana benthamiana leaves, transient expression, total protein extract
  stoichiometry N: 2 and 4 and 6

From paper PMC13534476, “The Arabidopsis SPFH protein HIR2 modulates receptor signaling and plasma membrane organization” (The EMBO Journal, 2026)
